No end group written: not given here.
B1: WPV phage (M13 phage of the PhD-12 library displaying …) (peptide)
peptide: WPVRPWMPGPVV
modifications: not fully specified (C-terminus)
B2: WPT phage displaying … (M13 phage of the PhD-12 library) (peptide)
peptide: WPTSPWSSRDWS
modifications: not fully specified (C-terminus)
B3: WPT phage displaying … (M13 phage of the PhD-12 library) (peptide)
peptide: WPTSPWLEREPA
modifications: not fully specified (C-terminus)
B4: LPQ phage (M13 phage of the PhD-12 library displaying …) (peptide)
peptide: LPQRAFWVPPIV
modifications: not fully specified (C-terminus)
B5: MPL phage (M13 phage of the PhD-12 library displaying …) (peptide)
peptide: MPLPQPSHLPLL
modifications: not fully specified (C-terminus)

Key:
[1] = tested on: P815MUC1 cells; experiment: Competition of phage binding by synthetic peptides; design: species or system mouse; conditions: for inhibition of WPY phage binding: increasing amounts of peptide (WPY 0.1, 10 and 500 μM)
Description: Synthetic peptides corresponding to the WPY and LPQ sequences of the previously selected phages (second and fourth sequences of Table 3) were synthetized (Neosystem, strasbourg, France). Increasing amounts of WPY peptide (0.1, 10 and 500 μM) and LPQ peptide (0.1, 10 and 1000 μM) or control peptides GHL and SGR (a non-selected phage from the PhD-C7C library) were diluted in a total volume of 1 ml of PBS-BSA1 % with 5.10^6 P815MUC1 cells and incubated for 1 hour at 4° C. under slight agitation. 1.10^10 WPY or LPQ phages in 200 μl of PBS-1% BSA were added and incubated with the cells and the peptide for two hours at 4° C. under slight agitation. Cells were then washed and bound phages eluted and titered following the same protocol as for the selections.

[2] = tested on: WiDr cells; experiment: Phage binding specificity test (output/input ratio); design: species or system human; conditions: fifth pool, PhD-C7C library
[3] = biological target: coxsackievirus-adenovirus receptor (CAR) on cells (UniProt P78310); experiment: cell-based or functional assay
UniProt P78310, sequence (P78310 20-365 limits assumed): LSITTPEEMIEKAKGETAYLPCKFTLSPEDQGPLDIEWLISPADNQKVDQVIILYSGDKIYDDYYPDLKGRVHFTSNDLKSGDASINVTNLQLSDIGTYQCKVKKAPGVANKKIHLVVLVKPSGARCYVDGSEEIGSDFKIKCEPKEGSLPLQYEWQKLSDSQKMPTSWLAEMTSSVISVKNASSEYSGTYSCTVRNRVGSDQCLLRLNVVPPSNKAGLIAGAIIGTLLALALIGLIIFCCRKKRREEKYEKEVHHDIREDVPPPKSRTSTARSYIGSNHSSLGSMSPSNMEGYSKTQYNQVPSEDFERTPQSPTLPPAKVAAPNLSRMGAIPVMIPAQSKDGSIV

[4] = biological target: MUC1 as expressed on P815MUC1 cells (P815 mouse mastocytoma cells transfected with MUC1 and Neomycin expression cassettes) (UniProt P15941); experiment: phage titration on P815MUC1 cells (1.5e11 phages, 1e7 cells; FIG. 4); the same is said of MUC1-negative P815pAG60 cells
[5] = biological target: MUC1 as expressed on P815MUC1 cells (P815 mouse mastocytoma cells transfected with MUC1 and Neomycin expression cassettes) (UniProt P15941); experiment: phage titration on MUC1-transfected against control-transfected P815 cells (FIG. 4)
[6] = increasing amounts of peptide (LPQ 0.1, 10 and 1000 μM), 1.10^10 phages, 4° C.

Row | Molecule | fold higher affinity than the control phages (M13, GHL) [4] [fold] | fold binding to P815MUC1 cells over P815pAG60 cells [5] [times] | other results
1 | CWPYPSHFC | – | – | inhibition of LPQ phage binding ([1]; 500 μM concentration of non-corresponding peptide): did not significatively inhibit; inhibition of WPY phage binding ([1]; 1.10^10 phages, 4° C.): inhibit in a dose-dependant manner
2 | CLPSTRQTC [CLPSTRWTC] | – | – | binding to WiDr cells compared to the subtractor 293 cells [2]: specific binding
3 | Adenovirus type 5 wild-type fiber protein, as carried by the Ad-fbwt virus (from UniProt P11818 1-581) | – | – | inhibition of infection of 293 and HeLa cells (β-galactosidase activity, % of control) by soluble knob at 10 µg/ml [3]: > 90%
4 | LPQRAFWVPPIV | – | – | inhibition of LPQ phage binding [1, 6]: inhibit in a dose-dependant manner
5 | GHLIPLRQPSHQ [GHL used as control peptide and non-selected PhD12 control phage, reference compound] | – | – | inhibition of LPQ phage binding [1, 6]: did not significatively inhibit; inhibition of WPY phage binding ([1]; 1.10^10 phages, 4° C.): did not significatively inhibit
6 | B1 | > 100 | > 3 | –
7 | B2 | > 100 | > 3 | –
8 | B3 | > 100 | > 3 | –
9 | B4 | > 100 | > 3 | –
10 | B5 | > 100 | > 3 | –
